Assay: soluble on expression in E. coli; label from the status in PepcDB or PDB records

| Sequence | soluble on expression in E. coli |
| --- | --- |
| MSLAPRFTVTYFVRAADEAEAKARALDIALEQTVEIPRNVVPKGYVEDEILGRLESLLQDPEGRPGFLAAISYSEDDIGGDFLQFLNIVFGNSSIKPGIKVEDIGLSPGLLDLCKGPRHGIVGLRARAGIGEKPLLMSAIKPAGLSTTELARLAYDFALGGMHFVKDDHGLVDQKTAPFEERLKACIEAVGEANAKSGGRTSFVPNITGPATAIIERAKQAQEYGAGGVMIAPALAGYDIVRTLAADPDFSLPIVSHPAFSGANVVSPDCGFTHRAFFGTLHRLMGADAVVYPNFGGRFGFTREECQSIAKTCSVDMGGPKAIVAAPGGGMTFARIPEMREAYGNDIMYLVGGALLSEPDLVSACKRLVAATEEGHHHHHH | soluble |
| MKANRVNIKQAITEGETSLGIEFGSTRIKAVLIDSSFETIASGSYEWENLLEDGFWTYNLVDIITGLRTAYSEMKNEVERNYGITIRKIGSIGISAMMHGYMAFDKTGELLVPFRTWRNSTTGAAAKELTDQFQFNIPERWSIAHLYQAILNEEKHLPRIDYITTLAGYIHWLLTGNKAIGIGDASGMFPIDESTQNYNESMVKQFDELISNKGYPWKLKDILPKVYISGEQAGELTEIGAKILDQSKNLQPGIPICPPEGDAGTGMVATNSVRKRTGNISVGTSVFAMIVLEKELSKVYPEIDLVTTPNGSPVGMVHANNCSSDINAWLGLFREFFEAMGQKIETNKLFEVMLNKALEADSDGGGLLSYGYFSGENITGLEKGRPLFVRSPESRFNLANFMRTHLFTAFAALKIGMDILTKEEKIEIDSILAHGGLFKTPLVGQKIVAAAMNTPVSVMETAGEGGAWGMAILASYMMNKGQEESLEDFLDKKVFEEDAGQEIYPDQLDVEGFEAFIERYKKGLMIEQAAVDHLILEHHHHHH | soluble |
| MSLKVYITYGTADFLKTIVQKHPSENILLMQGQENAILIHETNGDTVFQAPHAYEVIDQVGEIKHPGFAVLNNIAVTQEGRPLFENRFKNRAGKVENEPGFEAIRVLRPLDSDTYVILTLWETESAFQDWQQSGSYKEAHKKRDTSAGIDTTSIFSRPSYVTTYFAVEEGGSHHHHHH | soluble |
| MENNPFQRTEKIDISWCPGCGNFAIKASLSNALSKLNLKPQNVAIISGIGQAGKMPHYMFVNGFHTLHGRAIPAATAVKATNPELTVIAEGGDGDMYAEGGNHLIHAIRRNPNITVLIHNNQIYGLTKGQASPTTLVSTKTPTQPWGVFEEPLNPIALAISLNASFVARTFSGNLEKTEEIIIKAINHKGLSIVDIFHPCPSFNKVNTLQWYNENTYFLEDHDVTDRKKAFEKALQTEKYPLGIFYTCEKPVFEEVVPPYISEKTPIWKREPDLEKIEEIINSKRT | not soluble |
| MAHHHHHHMRRCFKLQAPPGVLSILSDLAQPRTSTSYQELLRNSHLPAQPLPFLPPPRWAAELSRVLHRTFPDVVQHHHTRFLQVFVHPSFTTAAGVSGTMQPLVAVGESLLERIGGLWILATFESTRREEYASLLALLTSDTALCRVLRDHWRLEHMVLTDASADLFSRQRLSSTKGLVCWLSSHGNVNGAQSLPEPFGAGCVKAMVAAVLLEHGNDAAEHFVKSEVLPYVL | not soluble |
| SNASGQQVHRLLGNKLELASTGQTIYHQDINLNNHPWIGDHRVYDTPVIPGVSYIAMTLAAVGVPAAVEDINFQQPLFLAESNTTRETQLMLHTADNVGKQFVEVFSRDGAKQEEWQQHASMSVSENPPPPPTLSVDIPALCEQLRPLDTDTLTEIYASISLVYGPMLQAVRQAWIGEETSLLEIEVPKALAFQLAGEPIHPVLIDACTRLTPDLFDFSSDSGVFWAPWRVKEMTLSHPTPSRFYAYVEEPSRVNEQLQTRSYDIQLLDETGQAFGRINGFTVKRAPSQLFLK | soluble |
| MGSDKIHHHHHHMNFLDGHLFPENQQPLIITAAPYAPGWLPSDFPEDIPVTMEEQIQKAVDCYNAGATVLHLHVRELDGKGSKRLSKFNELVAGVRKAVPEMIIQVGGSISFAPENEGQAAKWLSDDTRHMLADLEPTPDQVTVTVNTSQMNVTDHAEDADFRGTSRENPAIFNAYKEMTVPAQPGWVEEHVRRLTAKGIQSAFQCYNTNSFESVERLMRRGFYKGPLVMNWVAIGGGMDTPNVYSLGNFMRGVPDGAVVTVESNVRNVLPVNMMGIAMGLHVRCGTEDVLWNQKRTAKMSTVKQIEQLVRISHEFGREIATAKEAREISKIGVFYDTVEESLQANGFAPNRNGGTQGYLRKTR | not soluble |
| MSSGDQKVKEMFIEQGLHVDWLVRAHTVNSIEGLVYLSEQRHKWAEADQKVIFRILQDYKNSDGELLPEHNPAAPINRKRGTLKTELETFYDVPQVRTLTCELLDMVKEEPSIWDKIRCVDFGCHQRMRQAWCSISLKLGGWGAIQHVHMLKQLYRKKRDLYNVQYLRSGREFEYCEKLSFLKDVLEMAKNDPLDKNIQLDEHLKTATPIIDFDAELLAAPAEIQQILREISEKIDKVTTSQSPGFLAEYLATCCNEVVKHRETLATAGLGDDFN | not soluble |
| MSLDTYTTSEVADLIGVHPNTVRLYEELNLIPKPKRNTNGYRIFNDFHIEQFRFARTALKIEVVQRGLRKDALEIVRTSANRDFDKAISLVNQYLQQLEIEKSNAEEALTIVAQILNGNTPETNKLFLTRKETAEHLNVTIDTLRNWEMNGLLKVKRKQNGYRVYTDEDIKRLKIISALRCANYSLSAILRMLNALSSNPNTNIKTVLDTPKDDDEIISVCDKLITSLKEAEHNAKTMKSHLQIMKKQFSEGHHHHHH | soluble |
| MEFRQLRSFVEVVRQGSFTQAAQVRHASQSTISKQVAQLEQSLGVQVLERNGPHVRLTDAGAVVFRRAEEMLRLRRDLLSELDDLSQLNRGELRLGLPLLGADALFAQRFAEYRRRYPNIAVHLVEGGSKTMEQAVLAGELELAGSLTPADDGFDYQPFCNEPLDVLLPAGHPKAAAASVALGELADSPFLLYQQSFTLNDRLLRACLEAGFSPREGGRSGQADFLGALVAANQGVVLLPRVIAREIERPGVVRVLLREPDLRWDIAFIWRRGGYLSRAAQAWLELLREQPLEESPA | not soluble |
| NLHGMEQIEFQVSAHRDLPLRPLNKVASGGELSRISLAIQVITSKAGTVPTLIFDEVDTGIGGRIAAIVGKLLQQLGKTRQVMSITHLPQVAARGDHHWRVSKTSETED | not soluble |
| MVEPGRIGGNQTRLAAVLLDVSTPNTLNADFDLMRSVAGITDARNEEIRAMLQAFIGRMSGVPPSVWGGLAAARFQDVVDRWNAESTRLYHVLHAIADTIRHNEAALREAGQIHARHIAAAGGDL | soluble |
| MGSDKIHHHHHHMKKLTVYLATTNPHKVEEIKMIAPEWMEILPSPEKIEVVEDGETFLENSVKKAVVYGKKLKHPVMADDSGLVIYSLGGFPGVMSARFMEEHSYKEKMRTILKMLEGKDRRAAFVCSATFFDPVENTLISVEDRVEGRIANEIRGTGGFGYDPFFIPDGYDKTFGEIPHLKEKISHRSKAFRKLFSVLEKILESENR | soluble |
| MSKSDLRMKSNADKVIANLKKMTPIAEKEGAAMVNDSLAKIYQLIVPMTPIKSGDLRRGYRIIKARKLSSGRIVGALINNEKYFRYVNDGHRTKNGGFVKGRFMLQKSNKLANATYIPKRFKQMAIIIVKKG | not soluble |
| MMTESHGYLSNNLPVKIINDIIYATQLVEDLVLGKIKIVDFLKSYNNFYCWLGFDELPQSEKIKFLSYLNILSIHKEIQDETVNRVYTD | not soluble |
| SNATIYRMVDLPVIQPRLCTHARWPAPVYGLLVDPSLPSNPQWQNGRVHVDGTLLGTTPISGSWVSCFAAEAAYEFQSGTGEVATFTLIEQDGSAYVPGDRAAPLGYPDFSGQLEIEVQTETTKTGDKLKVTTFEMILGPTTNADQAPYQGRVFASVTAAASLDLVDGRVRAVPRSIYGFQDTIPEYNDGLLVPLAPPIGPFLPGEVLLRFRTYMRQIDTADAAAEAIDCALPQEFVSWFASNAFTVQSEALLLRYRNTLTGQLLFECKLYNEGYIALSYSGSGPLTFPTDGIFEVVSWVPRLYQLASVGSLATGRMLKQ | soluble |
| MKAYVALLHSIVLGDGRRVVMADLKAMAEALGCRAPRTLVATGNLLFEAPEKPLAELEAELEKAFEKTFGRHVDIIVRSAEDWSRLAAGNPFLAESERDPASVHVRVMRLPLEVDMREKLLGYCSRGERVAIVDGDLWVDFAGKASESKLLGALTTKRLGIGTVRNWNTVKGLRGMVAG | not soluble |
| MQMDGSKHMGTGAADAPFYLAQGDECDIFTAAYDNNLPVLLKGPTGCGKTRFVAHMAAKLGRPLYTVACHDDLAAADLIGRYLLKGGETVWVDGPLTRAVREGAICYLDEVVEARKDVTVVLHPLTDDRRILPIDRTGEELEAMPGFMLVASYNPGYQNILKTLKPSTRQRFISLEFDFPAPELEARVVSQESGLPLERCKPLIRLAGKLRGLKGQDLEEGVSTRLVVYAATLIAQGMPTERAILAAMVEPLTDDEDIKRGLLDLTTAVFGLEHHHHHH | not soluble |
| MSLHLKVFAKPKITYVENQTAMELEEQVTLTCEASGDPIPSITWRTSTRNISSEEKASWTRPEKQETLDGHMVVRSHARVSSLTLKSIQYTDAGEYVCTASNTIGQDSQSMYLEVQYAPKLQGPVAVYTWEGNQVNITCEVFAYPSATISWFRDGQLLPSSNYSNIKIYNTPSASYLEVTPDSENDFGNYNCTAVNRIGQESLEFVLVQADTPSSPSIDQVEPYSSTAQVQFDEPEATGGVPILKYKAEWRAMGEEVWHSKWYDAKEASMEGIVTIVGLKPETTYAVRLAALNGKGLGEISAASEFKTQPVREPSAEGHHHHHH | not soluble |
| MFDRLKNGEKIAPIVKEVESQITEVHKRADEVIESNQFRVLESFGKHKISDSHFIPTTGYGYDDIGRDTLEKVYADVFGAEAGLVRPQIISGTHAISTALFGILRPGDELLYITGKPYDTLEEIVGVRGKGVGSFKEYNIGYNAVPLTEGGLVDFEAVAAAIHSNTKMIGIQRSKGYATRPSFTISQIKEMIAFVKEIKPDVVVFVDNCYGEFIEEQEPCHVGADLMAGSLIKNPGGGIVKTGGYIVGKEQYVEACAYRLTSPGIGAEAGASLYSLQEMYQGFFLAPHVAGQALKGAIFTAAFLEKLGMNTSPAWNAPRTDLIQSVQFDDKDRMIAFCQAIQYASPINSHFTPYANYMPGYEDDVIMAAGTFIQGASIELSADGPIRPPYVAYVQGGLTYSHVKIAICSAIDELIEKNLLTISLEHHHHHH | soluble |
| MKGVIMIIDGMADRPLEKLSGRTPLEAASTPNMDRIAESGINGIMDPIKPGVRAGSDTSHLSILGYDPYRVYTGRGPFEAAGVGLDVKPGDIAFRCNFATADEDMIITDRRAGRIRSGTSSIARTINSMTIEGFEDVEIIFRESTGHRAVLVLRGPGLGDKVSDADPKVEGKPPKKIKALDGSPESRKTAEVLNRIVKESYEILRDHPVNTGRIERGEAPANIILPRGAGAVPHVEKFQERYDLKAACIAETGLIKGIGHLTGMDVIDVEGATGGIDTDLESIKNAISSAIAADYDFLLINIDGADEAGHDGDLEGKVRFIERVDSILGDLMGDDIYFILTADHSTPVSVMDHTGDPVPIAITGPEVRVDDVTSFSERAAAAGGLCRIRGSDVMDILLDLMNKKEKFGALEHHHHHH | not soluble |
| MDRRRFLVGLLGLGLARGQGLRVEEVVGGLEVPWALAFLPDGGMLIAERPGRIRLFREGRLSTYAELSVYHRGESGLLGLALHPRFPQEPYVYAYRTVAEGGLRNQVVRLRHLGERGVLDRVVLDGIPARPHGLHSGGRIAFGPDGMLYVTTGEVYERELAQDLASLGGKILRLTPEGEPAPGNPFLGRRGARPEVYSLGHRNPQGLAWHPKTGELFSSEHGPSGEQGYGHDEVNLIVPGGNYGWPRVVGRGNDPRYRDPLYFWPQGFPPGNLAFFRGDLYVAGLRGQALLRLVLEGERGRWRVLRVETALSGFGRLREVQVGPDGALYVTTSNRDGRGQVRPGDDRVLRLL | soluble |

From the DeepSol protein solubility set
